Measured values from US20170226204A1.
Where two headings read alike, the source gives them in different places.

Tests used:
[1] = target: human CD7 molecule (human) (UniProt P09564); assay: flow cytometry on CD7-positive Jurkat cells
[2] = target: human CD7 molecule (human) (UniProt P09564); assay: flow cytometry on H460 cells transfected with pcDNA3.1-CD7
[3] = target: human CD7 molecule (human) (UniProt P09564); assay: as above; remark: listed apart in the source

Chain of human CD7 molecule (human) (P09564 26-240): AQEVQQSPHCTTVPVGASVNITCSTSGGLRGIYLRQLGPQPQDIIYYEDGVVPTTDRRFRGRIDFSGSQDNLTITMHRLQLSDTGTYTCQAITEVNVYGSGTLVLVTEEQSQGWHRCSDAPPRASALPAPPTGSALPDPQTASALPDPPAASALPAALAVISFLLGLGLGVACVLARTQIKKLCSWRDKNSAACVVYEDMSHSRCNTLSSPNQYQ

Substance: commercial CD7 antibody (BD CD7-PE)
- positive rate of CD7+ [1]: 96.6%
- transfection efficiency (percent of cells stained) [2]: 18.8%
- transfection efficiency (percent of cells stained) [3]: 18%
